Patent US20150353911

## thrombin
Compound 4
  cleavage by 1.4 nM thrombin (HPLC): Compound 1 was a better substrate for thrombin than Compounds 4 and 5
FVII-133
  amidolytic activity (chromozyme t-PA substrate) before and after thrombin activation: FVII-212 displayed no activity prior to thrombin activation. Following thrombin activation, the amidolytic activity associated with FVII-212 was greater than that observed for equal molar levels of rFVIIa
Compound 1
  cleavage rate with 14 nM thrombin (HPLC, decrease of peptide peak area): at least 10-fold increase in cleavage rate compared to that of Compound 2
  fraction cleaved and released with 1.4 nM thrombin (HPLC): 30% of Compound 1 was quickly cleaved and released
Compound 6
  release of peptide IVGGQE with 1.4 nM thrombin (HPLC): thrombin-mediated release of peptide IVGGQE from Compound 6 without PABC linker was not observed
FVII-184
  clotting activity by ROTEM in human hemophilia A blood: Inactivating the thrombin cleavage site of FVII133 considerably reduced the activity; as the activity of FVII-184, which only became detectable at 50 nM, was much lower than that of FVIIa
Compound 5
  cleavage by 1.4 nM thrombin (HPLC): Compound 1 was a better substrate for thrombin than Compounds 4 and 5
